From PMC4014986 come the findings set out here.

Where two headings read alike, the source gives them in different places.

In experiment [1] the target is Actin filaments (F-actin) from rabbit skeletal muscle (rabbit) (UniProt P68135).
For experiment [2] the target is unchanged. This is another data set of the same source.
For experiment [3] the target is unchanged. This is another data set of the same source.

Chain of Myosin 5c subfragment 1 (Myo5c-S1, 1-785 amino acids) (Q9NQX4 1-785): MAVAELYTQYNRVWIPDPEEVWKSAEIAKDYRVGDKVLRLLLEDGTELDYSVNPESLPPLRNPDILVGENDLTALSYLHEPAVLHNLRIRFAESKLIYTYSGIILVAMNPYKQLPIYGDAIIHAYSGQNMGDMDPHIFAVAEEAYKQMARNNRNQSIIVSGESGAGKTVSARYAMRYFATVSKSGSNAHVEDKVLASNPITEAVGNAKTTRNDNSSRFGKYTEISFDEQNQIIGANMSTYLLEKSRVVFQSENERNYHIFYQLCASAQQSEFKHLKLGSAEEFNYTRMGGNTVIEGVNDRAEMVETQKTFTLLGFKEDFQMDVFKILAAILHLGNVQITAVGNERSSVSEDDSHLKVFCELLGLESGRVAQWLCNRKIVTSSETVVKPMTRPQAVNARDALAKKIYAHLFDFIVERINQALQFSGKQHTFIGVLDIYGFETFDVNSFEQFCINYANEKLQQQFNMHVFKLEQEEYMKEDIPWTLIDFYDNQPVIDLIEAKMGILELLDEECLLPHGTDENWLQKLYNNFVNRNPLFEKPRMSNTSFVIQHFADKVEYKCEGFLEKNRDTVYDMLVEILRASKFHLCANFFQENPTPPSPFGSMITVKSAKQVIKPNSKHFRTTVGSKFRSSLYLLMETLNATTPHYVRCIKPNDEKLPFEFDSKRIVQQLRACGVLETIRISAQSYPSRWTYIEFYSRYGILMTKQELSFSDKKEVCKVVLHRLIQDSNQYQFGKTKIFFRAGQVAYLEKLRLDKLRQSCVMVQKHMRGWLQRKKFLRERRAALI

Regarding “Myosin 5c subfragment 1 (Myo5c-S1, 1-785 amino acids) (from UniProt Q9NQX4 1-785) (domain or fragment)”, the K (ATPase) of the steady-state actin-activated ATPase (NADH-coupled assay) in experiment [1] turned out to be 26 µM; in experiment [2] it was 35 µM. Moreover, the half-maximum value (Kact) of the phosphate dissociation rate against F-actin concentration (MDCC-PBP, double-mixing stopped flow) in experiment [3] is 14.6 µM.
